Source: article PMC7781310

Target: sACE2_(2).v2.4-IgG1 (human) (UniProt Q9BYF1)
Assay: BLI

| Substance | Kd | koff |
| --- | --- | --- |
| SARS-CoV-2 RBD-8h N501Y (from UniProt P0DTC2 333-529) (domain or fragment) | < 0.1 nM |  |
| SARS-CoV-2 RBD-8h Y449K (from UniProt P0DTC2 333-529) (domain or fragment) |  | 0.004 s⁻¹ |
